Results from the DeepSol protein solubility set.

Assay: soluble on expression in E. coli; label from the status in PepcDB or PDB records

| Sequence | soluble on expression in E. coli |
| --- | --- |
| METTHSLTTDNAPTEDQPILSVTDLHMVSGTHLPELKIYAGLSLVHCGRENSATTLSMTLAGRMKPISGTIELKVQDSDKVLTTPRQLHKAVALAGVPELDSLERLVPVTAAVREQLAWSQPWYRRVPRDVTKSETFINAAKLLDLPNSKEFARQSIGDLDPLTRFRLRIALALIARPHTDLLIVDDIDQIRSLRLRADLLRELKNIAASIPVVAMSANDDVDKIADHEIHVAGALQRKQKAKA | not soluble |
| MEVKMPFVVFVKRSVRFPGKHSYMIGGKSLLEIIVSKLSNIGKVYVFTKDKDIICNGCSIEFDTTNGIITDSVLAAIDKFGTFFAVAGDMPLIKPELVSKMLSQYKGSPLFPRHMDGMLEPLFGIYTEDLYNALKEYLDKGGESLHAFLLTQPLQYYDIGSDDEVNFININYKSDIEKYRDLLVQLLEHHHHHH | soluble |
| MEVPVHPLSQDPTAAWREISKTQRVIKVTMKPPTTTVAPNKARVVCMSDTHSLTPYIKFDIPDGDIFIHAGDFTKCGQLEEVEEFNTWIGALPHRHKIVIAGNHELSFDRTFTHPFQKSKSHASSSKHTGMSILDDLPTLGNAKENLESAVQTQNVRDVLTNCRYLEDELLEIWGIQIYGSPWQPEFCRWAFNVPRGTACLDKWNQIPEGIDILVTHTPPVGHGDLCCSGVRAGCVELLSTVQQRVRPKYHVFGHVHEGYGITSDGRIIFVNASTCDINYLPNNAPIVFDVTLPPGFRKDLEHHHHHH | soluble |
| MEYWHYVETTSSGQPLLREGEKDIFIDQSVGLYHGKSKILQRQRGRIFLTSQRIIYIDDAKPTQNSLGLELDDLAYVNYSSGFLTRSPRLILFFKDPSSKDELGKSAETASADVVSTWVCPICMVSNETQGEFTKDTLPTPICINCGVPADYELTKSSINCSNAIDPNANPQNQFGVNSENICPACTFANHPQIGNCEICGHRLPNASKVRSKLNRLNFHDSRVHIELEKNSLARNKSSHSALSSSSSTGSSTEFVQLSFRKSDGVLFSQATERALENILTEKNKHIFNQNVVSVNGVDMRKGASSHEYNNEVPFIETKLSRIGISSLEKSRENQLLNNDILFNNALTDLNKLMSLATSIERLYKNSNITMKTKTLNLQDESTVNEPKTRRPLLILDREKFLNKELFLDEIAREIYEFTLSEFKDLNSDTNYMIITLVDLYAMYNKSMRIGTGLISPMEMREACERFEHLGLNELKLVKVNKRILCVTSEKFDVVKEKLVDLIGDNPGSDLLRLTQILSSNNSKSNWTLGILMEVLQNCVDEGDLLIDKQLSGIYYYKNSYWPSHI | soluble |
| MFAHPANTSAASDNVSKAKLLKMLNAERKENASKDQLIESLKNQLASGGSQKIMEFYRTSVEDLQTKVMRQETIIMEQSKTIEMLSIERSKSVKVHEDQINEMQEVMDKKVKQLEENYEERLKESGNESTASFDKESRDDSLEDFVEVSINEILETAESKRKLKERINHMETHCMTMLKETMEDNKLYSAQLKDQKKQFEVLQNEKAQWEKKEIQQTMELENLRLRLRDIVSLENLIL | not soluble |
| MFALPQAGDRRGEIIKVLLSNGWDYMNGLLTLGKVGEPQIPTPEVLTKILVELGPFYIKLGQLLSTRPDLLPPRYINALTALQSNVPPLPWSAIEDLLQREFPQPLGETFQEIESEPIAALEHHHHHH | not soluble |
| MFAMTSIAVIGGGKIGEALISGLVASGMSPKDIHVTNRNAERAQELKERYGVLTFLENIAAVDDVDMVFLCVKPQQVIPVVEEIADVVDNNTSTTIVSMAAGVTNAMIEESLAAGSPVIRVMPNTPMLVGKGMSVVAPGRYADEDTVASLTQLLEAVGSVEVIEESSMDAVVALSGSSPAYLFLMVEALIDAGVFLGLPRDKAKNLAVSSFAGAATMLEQTGEEPAVLRANVSSPGGTTIAAIREFEESGLRAAVYRAATAAATRNSSLG | not soluble |
| MFARSAQRFSDGDRLEVGGWPVRLKVDGRARRISLRVDRARSEIVALSPTPRRLNEAVAFAQEKAGWIAKQLAALPERMSLAPGGVLRLNDKPFRLEVGAGRARIDGDRIVAPDDANWGLKVIRLAKREALTVLTERTAIHAAALGRPVPSVAIADPKARWGSCRPATSRAPAAIRYSWRLILAPAVVADYVAAHECAHLIEANHGPRFWALCEQLIGDPTPHRAWLRAHAAELHAIGALEHHHHHH | not soluble |
| MFEEKASSPSGKMGGEEKPIGAGEEKQKEGGKKKNKEGSGDGGRAELNPWPEYIYTRLEMYNILKAEHDSILAEKAEKDSKPIKVTLPDGKQVDAESWKTTPYQIACGISQGLADNTVIAKVNNVVWDLDRPLEEDCTLELLKFEDEEAQAVYWHSSAHIMGEAMERVYGGCLCYGPPIENGFYYDMYLEEGGVSSNDFSSLEALCKKIIKEKQAFERLEVKKETLLAMFKYNKFKCRILNEKVNTPTTTVYRCGPLIDLCRGPHVRHTGKIKALKIHKNSSTYWEGKADMETLQRIYGISFPDPKMLKEWEKFQEEAKNRDHRKIGRDQELYFFHELSPGSCFFLPKGAYIYNALIEFIRSEYRKRGFQEVVTPNIFNSRLWMTSGHWQHYSENMFSFEVEKELFALKPMNCPGHCLMFDHRPRSWRELPLRLADFGVLHRNELSGALTGLTRVRRFQQDDAHIFCAMEQIEDEIKGCLDFLRTVYSVFGFSFKLNLSTRPEKFLGDIEVWDQAEKQLENSLNEFGEKWELNSGDGAFYGPKIDIQIKDAIGRYHQCATIQLDFQLPIRFNLTYVSHDGDDKKRPVIVHRAILGSVERMIAILTENYGGKWPFWLSPRQVMVVPVGPTCDEYAQKVRQQFHDAKFMADIDLDPGCTLNKKIRNAQLAQYNFILVVGEKEKISGTVNIRTRDNKVHGERTISETIERLQQLKEFRSKQAEEEF | soluble |
| MFEFEQLPNEMQLEVLKRTEFRTIQSMKTVSKRVQHFIQLYQRYMLPIPIRQMFVTPEKISFTLANSNEINTINHDDMDKYLRGAKVDLLWLEMNGSEDEPIEFLQKVIQKTNFTRIDCLKLGSSKVECDVTKLENCMASLVCAELIVDWRFRVPEDFFNELHVEKLTRLTIGNQESRNFYHPLSGDHFRKFRGDWLEIGQNRLRSSDISTFLKNWKLGSISWIEMYNIVISFPIPELLILLKNESCQKTPTTWKVSRDLDEGKEELEIGFFKSTNFSKQPSLVIRQLKILEYLW | not soluble |
| MFFLEHGKVRTFLTPTLRCPMEKTTTQELLAQAEKICAQRNVRLTPQRLEVLRLMSLQDGAISAYDLLDLLREAEPQAKPPTVYRALDFLLEQGFVHKVESTNSYVLCHLFDQPTHTSAMFICDRCGAVKEECAEGVEDIMHTLAAKMGFALRHNVIEAHGLCAACVEVEACRHPEQCQHDHSVQVKKKPR | not soluble |
| MFFRCCMKIVQIIGGLGNQMFQFAFYLALKEKYVNVKLDTSSFGAYTHNGFELDKVFHVEYLKASIRERIKLSYQGSEIWIRVLRKLLKRKKTEYVEPYLCFDENAISLSCDKYYIGYWQSYKYFTNIEAAIRGQFHFSKVLSDKNEFIKKQMQNSNSVSLHVRLGDYVNNPAYSNICTSAYYNKAINIIQSKVSEPKFFVFSDDTVWCKDHLKIPNCHIIDWNNKEESYWDMCLMTYCKHNIIANSSFSWWGAWLNTNPERIVIAPGKWINDDRVQVSDIIPSDWICVLEHHHHHH | not soluble |
| MFGFLRKSQPVPQPQEATSDTIATQHTSAPLSNDMMLLMAEEIPMLDSNSRVRVYEILEQYDGPTICSQEELPREIREMMDL | not soluble |
| MFHCKGLYMSDQNDKLKNLKTSSMDRRLSIAKASLLAGTRWATASATSMFSSEAEKEKKRKKAMTEQANYLVSEIGKLKGSIVKIGQMMALYGEHFLPEEITQALNTLNNQTVALAWPAIKAHLQEQLGSKLDDLIIDHEPIGTASLAQVHRATRKSDGLELVLKIQYPGVAEAIDSDMSLFKNMLKLTRMVPQTREFDQWFDEVREMMHREVSYDIEAATTRRFAERLKTDPRYAVPQIIDAYCTTKILCMTFERGVPINSPVMLSLPQERRNKLGEASLEIAVREIFEWGEMQTDPNFGNYLVRLGNGTDIQDKIVLLDFGAIRQFDEHLLSVARNLIRAGYNHSNEEMVRAMTGYSFFDSIPESIKPDMAKVFLLATEAFSCPENNPDMPTGLMDEDNRYDWKKSQLHSRVMQQASKSMASRYFSVPPKEFMFISRKFIGAYTFMTVIEAKTNVRRMISHFVKLEHHHHHH | not soluble |
| MFIKAERLLIRKFEFKDWEAVHEYTSDSDVMKYIPEGVFTEEDTRNFVNKNMGENAKNFPVILIGENILVGHIVFHKYFGEHTYEIGWVFNPKYFNKGYASEAAQATLKYGFKEMKLHRIIATCQPENTPSYRVMEKIGMRREGYFKKCIPHGNEWWDEYYYAILEEE | soluble |
| MFILKDVTYKDILHIPYLQIQKEKITCIIGESGSGKSTLLRMLNDLQSPTSGIIEYNGKLISDYPPIQLRRDVVMLGQTPPIFDGTIKDNLLMGLRLSEKPFPNDDILRSALKTISLEKNLEDNADSLSGGEKQRLAFARIVLMDPPVYLLDEPTSALDSDTERRVMKQFTTLAREKKKTVIFITHSQQLPEEIADDIIEISKANGATRKEVLSVEGRY | not soluble |
| MFILSKIADLVRIPPDQFHRDTISAITHQLNNKFANKIIPNVGLCITIYDLLTVEEGQLKPGDGSSYINVTFRAVVFKPFLGEIVTGWISKCTAEGIKVSLLGIFDDIFIPQNMLFEGCYYTPEESAWIWPMDEETKLYFDVNEKIRFRIEREVFVDVKPKSPKERELEERAQLENEIEGKNEETPQNEKPPAYALLGSCQTDGMGLVSWWEHHHHHH | soluble |
| MFIQTEPTPNPATLKFIPGRSVLDSGTLEFTDASQAARSPLAARLFDIDGVSGVFYGTDFVTVTKDKGEWQHLKPAILGAIMEHYMSGTPILADGKSDGEDGDDDEFYADADAETVEIIKDLIETRVRPAVANDGGDITFRGFKDGIVYLNMRGACAGCPSSTATLQHGIQNLLKHFVPEVVEVRPVT | not soluble |
| MFISDKSRPTDFYKDDHHNSSTTSTTRDMMIDVLTTTNESVDLQSHHHHNHHNHHLHQSQPQQQILLGESSGEDHEVKAPKKRAETWVQDETRSLIMFRRGMDGLFNTSKSNKHLWEQISSKMREKGFDRSPTMCTDKWRNLLKEFKKAKHHDRGNGSAKMSYYKEIEDILRERSKKVTPPQYNKSPNTPPTSAKVDSFMQFTDKGFDDTSISFGSVEANGRPALNLERRLDHDGHPLAITTAVDAVAANGVTPWNWRETPGNGDDSHGQPFGGRVITVKFGDYTRRIGVDGSAEAIKEVIRSAFGLRTRRAFWLEDEDQIIRCLDRDMPLGNYLLRLDDVCKTHLAGLAIRVCHYDESNQLPVHSEEKIFYTEEDYREFLARQGWSSLQVDGFRNIENMDDLQPGAVYRGVR | soluble |
| MFIYCIPLISQSMIPMALDKTINVMKVTGMFAATYFTGDNRTPFFAFIICLKSFKLENMDQPPKNKSNIFPAVEDSLLLEHHHHHH | not soluble |
| MFKGSIPALITPFTDNGSVDEKAFAAHVEWQIAEGSNGLVPVGTTGESPTLSHDEHKRVVELCIEVAAKRVPVIAGAGSNNTDEAIELALHAQEAGADALLVVTPYYNKPTQKGLFAHFSAVAEAVKLPIVIYNIPPRSVVDMSPETMGALVKAHKNIIGVKDATGKLDRVSEQRISCGKDFVQLSGEDGTALGFNAHGGVGCISVTANVAPRLCSEFQAAMLAGDYAKALEYQDRLMPLHRAIFMEPGVCGTKYALSKTRGGNRRVRSPLMSTLEPATEAAIDAALKHAGLMN | not soluble |
| MFKRVGIFVALVTLSLIFNQPATAGRTVEDFQVWGNITALGNFGFVNPGNPDLKKFRWWMEGQGRFGNDSSQFTQAIIRPGLGYAITDKIIIWAGYAWIPSDEPLVPKSGLPFDEHRIWQQVTWADEFSFGKLSLRSRFEQRFFDHNAPVSGSDDVAYRFRQLVKLAIPVAMIDPNLTFIIQNELFIGLNTVSNPGFISRGFDQNRAFVGLGYKVHQNATVELGYMNQFIDRRHNPRPDQMMHNFAVNLFLNF | not soluble |
